According to patent US20190169256A1 (YISSUM RESEARCH DEVELOPMENT COMPANY OF THE HEBREW …, published 2019):
Numbered stars: 1 amine (or outer) side, 2 acyl side, 3 side chain; on linkers, the order of the positions; unused ones are H or OH. Square brackets hold non-standard residues; d marks the D form. Suc = O=C(CCC(=O)[*:2])[*:1]; NMeV = CN[C@H](C(=O)O)C(C)C; βAla = NCCC(=O)O

B1: Ant-2 (peptide)
peptide: Suc-DF[NMeV][βAla]LM-NH2
SMILES: CSCC[C@H](NC(=O)[C@H](CC(C)C)NC(=O)CCNC(=O)[C@H](C(C)C)N(C)C(=O)[C@H](Cc1ccccc1)NC(=O)[C@H](CC(=O)O)NC(=O)CCC(=O)O)C(N)=O
B2: Ant-3 (peptide)
peptide: Suc-DSF[NMeV][βAla]LM-NH2
SMILES: CSCC[C@H](NC(=O)[C@H](CC(C)C)NC(=O)CCNC(=O)[C@H](C(C)C)N(C)C(=O)[C@H](Cc1ccccc1)NC(=O)[C@H](CO)NC(=O)[C@H](CC(=O)O)NC(=O)CCC(=O)O)C(N)=O
B3: Ant-6 (peptide)
peptide: Suc-DS[dW][NMeV][βAla]LM-NH2
SMILES: CSCC[C@H](NC(=O)[C@H](CC(C)C)NC(=O)CCNC(=O)[C@H](C(C)C)N(C)C(=O)[C@@H](Cc1c[nH]c2ccccc12)NC(=O)[C@H](CO)NC(=O)[C@H](CC(=O)O)NC(=O)CCC(=O)O)C(N)=O
B4: Ant-5 (peptide)
peptide: Suc-D[dW][NMeV][βAla]LM-NH2
SMILES: CSCC[C@H](NC(=O)[C@H](CC(C)C)NC(=O)CCNC(=O)[C@H](C(C)C)N(C)C(=O)[C@@H](Cc1c[nH]c2ccccc12)NC(=O)[C@H](CC(=O)O)NC(=O)CCC(=O)O)C(N)=O
B5: Ant-4 (peptide)
peptide: Suc-DI[dW][NMeV][βAla]LM-NH2
SMILES: CC[C@H](C)[C@H](NC(=O)[C@H](CC(=O)O)NC(=O)CCC(=O)O)C(=O)N[C@H](Cc1c[nH]c2ccccc12)C(=O)N(C)[C@H](C(=O)NCCC(=O)N[C@@H](CC(C)C)C(=O)N[C@@H](CCSC)C(N)=O)C(C)C
B6: Ant-1 (peptide)
peptide: Suc-DIF[NMeV][βAla]LM-NH2
SMILES: CC[C@H](C)[C@H](NC(=O)[C@H](CC(=O)O)NC(=O)CCC(=O)O)C(=O)N[C@@H](Cc1ccccc1)C(=O)N(C)[C@H](C(=O)NCCC(=O)N[C@@H](CC(C)C)C(=O)N[C@@H](CCSC)C(N)=O)C(C)C

Molecular target: Zebrafish tac3 receptor (zebrafish)
Assay: cell-based or functional assay

Binder | reduction of the NKB-induced response (CRE-Luc) [%]
B1 | ~60
B2 | ~60
B3 | ~60
B4 | ~60
B5 | ~60
B6 | ~60

Molecular target: Tilapia tac3 receptor (tilapia)
Assay: cell-based or functional assay

Binder | reduction of the NKB-induced luciferase response (CRE-Luc) [%]
B1 | ~60
B2 | ~60
B3 | ~60
B4 | ~60
B5 | ~60
B6 | ~60

Molecular target: Salmon tac3 receptor (salmon)
Assay: cell-based or functional assay

Binder | IC50 of inhibition of slNKB-induced SRE-Luciferase activity [nM] | reduction of the NKB-induced luciferase response (CRE-Luc) [%]
B1 | 2600 | 
B2 | 6.16 | 
B3 | 870 | ~60
B5 |  | ~60
